Measured values: patent publication US8309523 (VIB VZW, dated 2012)
Residue numbers refer to the chain shown, from its start.

What was measured:
Assay in all cases: bio-IP from HEK293T cells, anti-TRAF6 immunoblot
[1] = molecular target: T1, p76 fragment of MALT1 (Avi-tagged expression construct) (human, UniProt Q9UDY8 150-824, Avi-tag biotinylated in vivo by co-expressed BirA)
T1 construct: domain: p76 cleavage fragment; Lacks the N-terminal death domain; also called MALT1 p76; 76 kDa C-terminal fragment
T1 sequence (looked up): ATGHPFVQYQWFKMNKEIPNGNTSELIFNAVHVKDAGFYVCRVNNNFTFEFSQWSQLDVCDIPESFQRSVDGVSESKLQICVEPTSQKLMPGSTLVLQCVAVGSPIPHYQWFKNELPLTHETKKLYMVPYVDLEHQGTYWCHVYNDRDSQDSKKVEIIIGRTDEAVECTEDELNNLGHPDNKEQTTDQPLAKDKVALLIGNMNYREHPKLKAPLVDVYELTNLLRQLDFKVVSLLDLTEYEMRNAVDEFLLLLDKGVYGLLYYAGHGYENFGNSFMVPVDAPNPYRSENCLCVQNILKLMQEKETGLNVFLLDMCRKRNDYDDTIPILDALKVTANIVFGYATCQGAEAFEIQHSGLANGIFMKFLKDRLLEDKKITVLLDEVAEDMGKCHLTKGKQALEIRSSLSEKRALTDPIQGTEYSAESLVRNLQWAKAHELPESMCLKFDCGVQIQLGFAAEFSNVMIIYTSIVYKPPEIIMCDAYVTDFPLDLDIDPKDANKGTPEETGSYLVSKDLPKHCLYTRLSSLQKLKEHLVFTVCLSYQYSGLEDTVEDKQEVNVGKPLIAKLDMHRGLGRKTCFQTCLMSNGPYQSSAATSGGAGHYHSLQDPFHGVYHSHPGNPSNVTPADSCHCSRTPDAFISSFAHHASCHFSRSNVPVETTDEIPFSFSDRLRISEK
From the text: (§1) FIG. 5: p76 activates NFκB via TRAF6. […] Panel B) TRAF6 mediates NFκB signaling by p76. Top: NFκB-reporter assays of HEK293T cells transiently expressing MALT1, p76 and mutants or MALT1-C. Bottom: MALT1, p76 or MALT1-C, transiently expressed in HEK293T cells, were purified via bio-IPs and immunoblotted with anti-MALT1 (to show equal expression), anti-TRAF6 and anti-BCL10. Panel C) p76 induces polyubiquitination of IKKγ. Immunoblot analysis of bio-IP and IKKγ-IP of 293T cells transfected with pcD-F-IKKγ and pcd-HA-Ub in combination with indicated Avi-tagged MALT1 constructs. Panel D) BCL10 is not involved in NFκB signaling by p76. NFκB reporter assays of HEK-293T cells transfected with siRNA duplexes against MALT1, BCL10 or GFP (as control) followed by transient transfection with p76. The expression levels were determined by immunoblot with anti-MALT1 and anti-BCL10. NFκB-dependent luciferase activity […] is shown as fold induction of vector-transfected cells and represents the mean+/−S.D. of three independent experiments.
(§2) NFκB activation by MALT1 requires TRAF6 binding via two distinct sites (19), which are both present in the p76 cleavage fragment. Mutation of one TRAF6 binding site, either E313A/E316A (T6Ig-m) or E806A (T6C-m), abolished the potential of p76 to activate NFκB signaling in 293T cells (FIG. 5, Panel B). […] Furthermore, NFκB activation by p76 in 293T cells was associated with increased polyubiquitination of IKKγ (FIG. 5, Panel C).

p76 T6Ig-m (E313A/E316A) = molecular target: T2, p76 T6Ig-m (E313A/E316A) (human, UniProt Q9UDY8 150-824, Avi-tag biotinylated in vivo by co-expressed BirA)
T2 construct: domain: p76 cleavage fragment
T2 sequence (looked up): T1 sequence (looked up) with E164A, E167A
From the text: as §1, §2

[2] = molecular target: T3, p76 T6Ig/C-m (E313A/E316A and E806A) (human, UniProt Q9UDY8 150-824, Avi-tag biotinylated in vivo by co-expressed BirA)
T3 construct: domain: p76 cleavage fragment
T3 sequence (looked up): T1 sequence (looked up) with E164A, E167A, E657A
From the text: as §1, §2

binding result [1]: binds
binding result (p76 T6Ig-m (E313A/E316A)): binds
binding result [2]: no binding
B1: TRAF6 (other, UniProt Q9Y4K3 1-522, looked up)
chain: MSLLNCENSCGSSQSESDCCVAMASSCSAVTKDDSVGGTASTGNLSSSFMEEIQGYDVEFDPPLESKYECPICLMALREAVQTPCGHRFCKACIIKSIRDAGHKCPVDNEILLENQLFPDNFAKREILSLMVKCPNEGCLHKMELRHLEDHQAHCEFALMDCPQCQRPFQKFHINIHILKDCPRRQVSCDNCAASMAFEDKEIHDQNCPLANVICEYCNTILIREQMPNHYDLDCPTAPIPCTFSTFGCHEKMQRNHLARHLQENTQSHMRMLAQAVHSLSVIPDSGYISEVRNFQETIHQLEGRLVRQDHQIRELTAKMETQSMYVSELKRTIRTLEDKVAEIEAQQCNGIYIWKIGNFGMHLKCQEEEKPVVIHSPGFYTGKPGYKLCMRLHLQLPTAQRCANYISLFVHTMQGEYDSHLPWPFQGTIRLTILDQSEAPVRQNHEEIMDAKPELLAFQRPTIPRNPKGFGYVTFMHLEALRQRTFIKDDTLLVRCEVSTRFDMGSLRREGFQPRSTDAGV
notes: Co-precipitated from lysates of human cell lines
